# B1: PRC1 dimerization domain (PRC1-DD; aa 1-65 of Protein Regulator of Cytokinesis 1) (domain or fragment, human, UniProt O43663-1 1-65, looked up)
# chain: MRRSEVLAEESIVCLQKALNHLREIWELIGIPEDQRLQRTEVVKKHIKELLDMMIAEEESLKERL
# notes: Protein Regulator of Cytokinesis 1 (PRC1), human, isoform 1 (NP_003972; full length 620 residues), residues 1-65 (dimerization domain); Cloned between Nde I and Xho I of pET-21a with a C-terminal His-tag; no removal of the tag is described; For NMR the protein was 15N- or 15N/13C-labelled; isotopic heterodimers were made by mixing unlabelled and labelled protein in 8 M urea; also called …
# Target: the molecule itself
# Assay: cross-linking; PEG5 cross-linker (0.1 M-1 M), protein at 20 nM and 50 nM, 50 mM sodium phosphate, 150 mM NaCl, pH 7.4, 25 °C, 30 min, read by SDS-PAGE
protein,measurement,value
B1,stoichiometry N,2
